The values that follow come from the supplement of paper PMC5998384.

Data set [1] concerns HeLa Kyoto. The data set can be described thus: thermal stability score vs G1/S (z-score of summed log2 fold changes over temperatures); higher = more thermally stable than in G1/S.
The test system of data set [2] is HeLa Kyoto. The data set can be described thus: solubility change mitosis vs G1/S (difference of NP-40 vs SDS log2 ratios) (log2 ratio difference); higher = more soluble in mitosis.
For data set [3], the system named is HeLa Kyoto. The data set can be described thus: melting temperature (median over replicates), in situ; higher = more thermally stable.
For data set [4], the system named is HeLa Kyoto. The data set can be described thus: solubility in G1/S (NP-40 vs SDS abundance) (log2 ratio); higher = more soluble. The settings on record: cell cycle stage: G1/S.
The mark [5] stands for this setting: cell cycle stage: early G1 (4.5 h after nocodazole release).
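Throughout, for melting temperature (median over replicates), in situ: HeLa Kyoto cells synchronized by double thymidine or nocodazole block, proteins quantified by TMT10plex mass spectrometry, three independent biological replicates.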
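Throughout, for solubility change mitosis vs G1/S (difference of NP-40 vs SDS log2 ratios): synchronized HeLa Kyoto cells (double thymidine block for G1/S, nocodazole release for mitosis), protein amounts in NP-40 versus SDS lysates quantified by mass spectrometry, three biological replicates.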
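Throughout, for solubility in G1/S (NP-40 vs SDS abundance): HeLa Kyoto cells arrested at G1/S by double thymidine block, proteins quantified by TMT10plex mass spectrometry in mild NP-40 versus SDS extracts, three biological replicates.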
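Throughout, for thermal stability score vs G1/S (z-score of summed log2 fold changes over temperatures): synchronized HeLa Kyoto cells, proteins quantified by TMT10plex mass spectrometry, three biological replicates, mitosis taken 0.5 h after nocodazole release, G1/S directly after double thymidine block.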

Regarding “MDAPRASAAKPPTGRKMKARAPPPPGKAATLHVHSDQKPPHDGALGSQQNLVRMKEALRASTMDVTVVLPSGLEKRSVLNGSHAMMDLLVELCLQNHLNPSHHALEIRSSETQQPLSFKPNTLIGTLNVHTVFLKEKVPEEKVKPGPPKVPEKSVRLVVNYLRTQKAVVRVSPEVPLQNILPVICAKCEVSPEHVVLLRDNIAGEELELSKSLNELGIKELYAWDNRRETFRKSSLGNDETDKEKKKFLGFFKVNKRSNSKGCLTTPNSPSMHSRSLTLGPSLSLGSISGVSVKSEMKKRRAPPPPGSGPPVQDKASEKVSLGSQIDLQKKKRRAPAPPPPQPPPPSPLIPNRTEDKEENRKSTMVSLPLGSGSHCSPDGAPQVLSEAEETVSVGSCFASEDTTEDSGVMSSPSDIVSLDSQQDSMKYKDKWATDQEDCSDQDLAGTPDLGPQKSPLWEKNGSENSHLRTEKAVTASNDEEDLLIAGEFRKTLAELDEDLEEMEDSYETDTSSLTSSIHGASNHCPQDAMIPHGDTDAIPVTFIGEVSDDPVDSGLFSNRNNNAGSFDSEGVASRRDSLAPLQAEHSQPHEKAREEVPALHPASHDVGKGIRVALSNISKDGNLMETAPRVTSFASNLHTDNLNAKVKDKVYGCADGERTQATERVNSQPVNEKDSNDKNAALAPTSWHQRGQNPGKSYRLKHGLTTYKIIPPKSEMRCYDRDVSLSTGAIKIDELGNLVSPHATGIRIISLSSSVPEAESQPIGKVREFWRCNSVEKHLGRPSESSARGPPSTPVPTQTQNPESRLQADPKPISPQQKSAHHEGRNPLGEGRNQPPTMGMGHVRVPAAHTTEVTFLKPQRRTSSQYVASAIAKRIGAPKVHADVVRPHGYAEKGYAGKAPVLAAPPVTVKDDRTSSPHSETQGWKDGAQWPCVTPPNNHGEDLAVGAPPRGEVIGPHRKLSTQDRPAAIHRSSCFSLVQSSQRDRVSVGQSCGFSGKQSTSSQEASSASEPRRAPDGTDPPPPHTSDTQACSRELVNGSVRAPGHGEPSHPPGGSGTESHILLEREEKPSVFSTDGNETDSIWPPSIFGPKKKFKPVVQRPVPKDTSLHSALMEAIHSAGGKDRLRKTAEHTGEGRPAKLSYTEAEGERSALLAAIRGHSGTCSLRKVASSASEELQSFRDAALSAQGSESPLLEDLGLLSPPAIPPPPPPPSQALSAPRTASRFSTGTLSNTADARQALMDAIRSGTGAARLRKVPLLV [COBL]”, the thermal stability score in data set [1] (setting [5]) worked out at 1.3; in data set [1] (cell cycle stage: mitosis) it was 1.18. In addition, the “solubility change mitosis (log2)” value in data set [2] was 0.177. Besides, the melting temperature in data set [3] (cell cycle stage: G1/S) was determined as 49.1 °C; in data set [3] (cell cycle stage: mitosis), 49.8 °C. Besides, in data set [4], the “solubility in G1/S (log2)” value was -0.423.
For “MGKKGKKEKKGRGAEKTAAKMEKKVSKRSRKEEEDLEALIAHFQTLDAKRTQTVELPCPPPSPRLNASLSVHPEKDELILFGGEYFNGQKTFLYNELYVYNTRKDTWTKVDIPSPPPRRCAHQAVVVPQGGGQLWVFGGEFASPNGEQFYHYKDLWVLHLATKTWEQVKSTGGPSGRSGHRMVAWKRQLILFGGFHESTRDYIYYNDVYAFNLDTFTWSKLSPSGTGPTPRSGCQMSVTPQGGIVVYGGYSKQRVKKDVDKGTRHSDMFLLKPEDGREDKWVWTRMNPSGVKPTPRSGFSVAMAPNHQTLFFGGVCDEEEEESLSGEFFNDLYFYDATRNRWFEGQLKGPKSEKKKRRRGRKEEPEGGSRPACGGAGTQGPVQLVKEVVAEDGTVVTIKQVLTAPGSAGQPRSEDEDSLEEAGSPAPGPCPRSNAMLAVKHGVLYVYGGMFEAGDRQVTLSDLHCLDLHRMEAWKALVEMDPETQEWLEETDSEEDSEEVEGAEGGVDDEDSGEESGAED [KLHDC4]”, the results for the thermal stability score in data set [1] (setting [5]) and in data set [1] (cell cycle stage: mitosis) were -0.0688 and -0.148, respectively. In addition, the “solubility change mitosis (log2)” value in data set [2] was -0.00461. The melting temperature came to 49.7 °C in data set [3] (cell cycle stage: G1/S) and 48.9 °C in data set [3] (cell cycle stage: mitosis). Besides, the “solubility in G1/S (log2)” value in data set [4] is -0.239.
Turning to “MPGFLVRILPLLLVLLLLGPTRGLRNATQRMFEIDYSRDSFLKDGQPFRYISGSIHYSRVPRFYWKDRLLKMKMAGLNAIQTYVPWNFHEPWPGQYQFSEDHDVEYFLRLAHELGLLVILRPGPYICAEWEMGGLPAWLLEKESILLRSSDPDYLAAVDKWLGVLLPKMKPLLYQNGGPVITVQVENEYGSYFACDFDYLRFLQKRFRHHLGDDVVLFTTDGAHKTFLKCGALQGLYTTVDFGTGSNITDAFLSQRKCEPKGPLINSEFYTGWLDHWGQPHSTIKTEAVASSLYDILARGASVNLYMFIGGTNFAYWNGANSPYAAQPTSYDYDAPLSEAGDLTEKYFALRNIIQKFEKVPEGPIPPSTPKFAYGKVTLEKLKTVGAALDILCPSGPIKSLYPLTFIQVKQHYGFVLYRTTLPQDCSNPAPLSSPLNGVHDRAYVAVDGIPQGVLERNNVITLNITGKAGATLDLLVENMGRVNYGAYINDFKGLVSNLTLSSNILTDWTIFPLDTEDAVRSHLGGWGHRDSGHHDEAWAHNSSNYTLPAFYMGNFSIPSGIPDLPQDTFIQFPGWTKGQVWINGFNLGRYWPARGPQLTLFVPQHILMTSAPNTITVLELEWAPCSSDDPELCAVTFVDRPVIGSSVTYDHPSKPVEKRLMPPPPQKNKDSWLDHV [GLB1]”, the thermal stability score in data set [1] (setting [5]) was 0.0217; in data set [1] (cell cycle stage: mitosis) it was 0.602. In addition, the “solubility change mitosis (log2)” value in data set [2] was -0.293. Also, the melting temperature in data set [3] (cell cycle stage: G1/S) was 55.6 °C; in data set [3] (cell cycle stage: mitosis) it was 57.6 °C. Further, in data set [4], the “solubility in G1/S (log2)” value was 0.0247.
As to “MVKQIESKTAFQEALDAAGDKLVVVDFSATWCGPCKMIKPFFHSLSEKYSNVIFLEVDVDDCQDVASECEVKCMPTFQFFKKGQKVGEFSGANKEKLEATINELV [TXN]”, the thermal stability score in data set [1] (setting [5]) was -0.802; in data set [1] (cell cycle stage: mitosis) it was -2.72. In addition, the “solubility change mitosis (log2)” value in data set [2] is -0.04. Besides, the melting temperature was 57.3 °C in data set [3] (cell cycle stage: G1/S) and 58.1 °C in data set [3] (cell cycle stage: mitosis). In addition, the “solubility in G1/S (log2)” value in data set [4] stood at 0.255.
Regarding “MAGPAWISKVSRLLGAFHNPKQVTRGFTGGVQTVTLIPGDGIGPEISAAVMKIFDAAKAPIQWEERNVTAIQGPGGKWMIPSEAKESMDKNKMGLKGPLKTPIAAGHPSMNLLLRKTFDLYANVRPCVSIEGYKTPYTDVNIVTIRENTEGEYSGIEHVIVDGVVQSIKLITEGASKRIAEFAFEYARNNHRSNVTAVHKANIMRMSDGLFLQKCREVAESCKDIKFNEMYLDTVCLNMVQDPSQFDVLVMPNLYGDILSDLCAGLIGGLGVTPSGNIGANGVAIFESVHGTAPDIAGKDMANPTALLLSAVMMLRHMGLFDHAARIEAACFATIKDGKSLTKDLGGNAKCSDFTEEICRRVKDLD [IDH3A]”, the thermal stability score in data set [1] (setting [5]) was -0.172; in data set [1] (cell cycle stage: mitosis), -1.18. Besides, the “solubility change mitosis (log2)” value in data set [2] was -0.00106. The figures for the melting temperature in data set [3] (cell cycle stage: G1/S) and in data set [3] (cell cycle stage: mitosis) were 54.5 °C and 54.6 °C, respectively. Moreover, the “solubility in G1/S (log2)” value in data set [4] came to 0.45.
